For assay [1], the system named is ORE1, NAP and SAG12 transcripts. Nature of the assay: qPCR expression of senescence genes in detached leaves. To be noted: 1 μM peptide, 0, 1, 5, 10 h, detached sixth rosette leaves, vs mock, ACTIN reference, three experiments. Format: cell-based, Arabidopsis thaliana. The text has this: (§1) Total RNA was isolated from Arabidopsis leaves with the RNAiso Plus (TAKARA) and reverse transcribed using the PrimeScript RT reagent Kit (TAKARA). qPCR reactions were implemented in an Applied Biosystems 7500 Real-Time PCR system with the SYBR Premix Ex Taq II (TAKARA). ACTIN was used as the reference gene for qPCR analyses. The primers used for qPCR are listed in Supplemental Table 2.
In general terms: Real-time PCR tracks product formation cycle by cycle.

Assay [2] deals with MIK2-GFP (pMIK2::MIK2-GFP/mik2-1 plants). Nature of the assay: MIK2-phosphorylation assay in detached leaves. The assay is classed as cell-based, Arabidopsis thaliana. Conditions: 5 μM peptide, 0, 1, 2, 4 h, pMIK2::MIK2-GFP/mik2-1 leaves; GFP IP, anti-pThr blot; vs mock. Here is the method:
Transgenic A. thaliana T3 homozygous plants expressing MIK2-GFP under the control of its native promoter were grown under long-day conditions (16 h light/8 h dark) for 4 weeks before sampling. […] Leaves were subjected to vacuum infiltration at room temperature for 30 min. Following treatment, the leaves were rapidly frozen in liquid nitrogen and ground into a fine powder. […] The samples were incubated for 30 min at 4°C with gentle agitation, followed by centrifugation at 14 000 rpm for 20 min at 4°C to remove debris. The supernatant was then incubated with anti-GFP agarose beads (Abcam, AE079) overnight at 4°C for immunoprecipitation (IP). […] The 30-μL eluted proteins were resolved on 7.5% SDS-PAGE gels and transferred onto polyvinylidene fluoride membranes. […] Abcam, AB6556), goat anti-rabbit immunoglobulin G (IgG) (H + L)-horseradish peroxidase (HRP) antibody (1:4000; Abcam, AB6721) and its phosphorylation status using anti-pThr antibodies (1:750, Cell Signaling, 9386), goat anti-mouse IgG (H + L)-HRP antibodies (1:2000; Abcam, AB6789), respectively.

Assay [3] concerns the target T1, MIK2 ectodomain (MIK2^LRR-MBP) (Arabidopsis thaliana, UniProt Q8VZG8).
T1 construct: expressing only the ectodomain (residues 45–707); made in house; host or cells: E. coli strain BL21
T1 sequence (Q8VZG8 45-707): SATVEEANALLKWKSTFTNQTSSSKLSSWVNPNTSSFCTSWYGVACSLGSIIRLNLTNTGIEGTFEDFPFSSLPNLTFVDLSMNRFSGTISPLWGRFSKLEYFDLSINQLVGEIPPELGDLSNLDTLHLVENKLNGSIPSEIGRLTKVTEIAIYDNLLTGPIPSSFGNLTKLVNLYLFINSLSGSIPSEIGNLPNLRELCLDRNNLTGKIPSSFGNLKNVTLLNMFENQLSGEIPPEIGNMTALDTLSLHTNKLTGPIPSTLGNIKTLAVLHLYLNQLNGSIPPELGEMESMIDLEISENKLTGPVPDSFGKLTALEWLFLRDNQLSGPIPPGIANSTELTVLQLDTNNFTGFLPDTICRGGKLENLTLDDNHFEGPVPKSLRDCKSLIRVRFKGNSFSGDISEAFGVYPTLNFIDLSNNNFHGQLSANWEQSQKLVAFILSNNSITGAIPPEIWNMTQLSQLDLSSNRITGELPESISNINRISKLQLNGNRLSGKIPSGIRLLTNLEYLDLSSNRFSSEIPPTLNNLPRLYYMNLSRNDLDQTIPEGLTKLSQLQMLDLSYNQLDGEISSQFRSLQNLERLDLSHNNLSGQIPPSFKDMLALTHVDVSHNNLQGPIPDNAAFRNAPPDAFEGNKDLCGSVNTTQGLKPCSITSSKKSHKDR
Description: MST competitive binding analysis. Conditions: MST competition (Figure 5F).
Description: To express MIK2 protein in the soluble form, the truncated sequence of MIK2 (MIK2 ^LRR) expressing only the ectodomain (residues 45–707) was amplified from the gMIK2-Blunt subclone vector and inserted into the pET41 vector, fused with a 6× His-MBP tag. Then, the ectodomain of MIK2 (MIK2^LRR) in the absence of the putative N-terminal signal peptide was expressed in E. coli strain BL21 (TransGen). Cell cultures were grown to 0.6 optical density 600 and then induced with 0.3 mM isopropyl-β-D-thiogalactopyranoside for 30 h at 13°C. The mixture was then centrifuged at 12 000 rpm to separate the cells from the medium. The pellets were resuspended with the binding buffer (20 mM phosphate buffer, 500 mM NaCl, 50 mM imidazole, pH 7.4). The cells were sonicated on ice for 30 min in the lysis buffer (0.2 mg/mL lysozyme, 20 μg/mL DNAse, 1 mM MgCl2, 1 mM PMSF). […]
A Monolith NT.115 system (Nanotemper Technologies) was used to perform MST assays. […] The concentration of purified MIK2^LRR was measured with the BCA Protein Quantification Kit (Vazyme) and then diluted with ddH2O to 20 μM. […] MST results were analyzed using the Nanotemper analysis software (MO. Affinity) ([Jerabek-Willemsen et al., 2011]). […] The dissociation constant Ki was determined using the Ki Finder Tool available on the NanoTemper Technologies website (http://www.nanotempertechnologies.com/get-it-all/tools/ki-finder/).

In assay [4] the test system is Arabidopsis root elongation. Conditions: ref Hou et al., 2021b, Rhodes et al.; cited from earlier work. The text has this:
Senescence, a crucial biological event in plant development, involves the coordinated breakdown of cellular components to recycle nutrients, aiding adaptation to changing environments. It optimizes nutrient storage and reuse, particularly in leaves, the primary photosynthetic organs. Initiation of leaf senescence prompts various physiological changes, including chlorophyll (Chl) reduction and macromolecule degradation, enabling nutrient recycling that supports the growth of seeds and fruits ([Yang et al., 2014]; [Kim et al., 2018]; [Woo et al., 2019]; [Guo et al., 2021]). Efficient senescence ...

A further assay has as its system bik1 pbl1 double mutants. Details: method as in Hou et al., 2021b. Conditions: ref Hou et al., 2021b; cited from earlier work.
In a further assay the test system is PROSCOOP12 transcript. Nature of the assay: qPCR expression of PROSCOOP12 in detached leaves. Format: cell-based, Arabidopsis thaliana.
From the text: as §1

B1: SERINE-RICH ENDOGENOUS PEPTIDE 10 (peptide)
peptide: ALPYHHELFLGRKRMNYYKPNSAIGTPSSTSDHAPGSNGRKLMSIYRPNGDIFTGPSGSGHGGGRTPAP
notes: processed from PROSCOOP10; synthesized by GenScript
Turning to B1, the “expression of ORE1, NAP and SAG12” value in assay [1] was “strongly and relatively quickly induced the expression of the tested transcripts”. The MIK2 kinase phosphorylation entry in assay [2] is listed as “MIK2 phosphorylation decreased drastically over time compared to the mock controls”. Further, the “effect of competitor peptide on the MIK2 complex of the other peptide (MST)” value in assay [3] is listed as “limited effect on the MIK2-SCOOP12 complex stability maintenance”. Further, the “root elongation (published)” value in assay [4] is on record as “inhibiting root elongation”. Besides, the “root growth inhibition in bik1 pbl1 (published)” value with bik1 pbl1 double mutants was “only mild alleviation of the SCOOP10-induced root growth inhibition”. Moreover, the PROSCOOP12 expression result in the assay on PROSCOOP12 transcript (1 μM peptide, no pretreatment, detached leaves, vs mock, qPCR) was “induce the expression of PROSCOOP12 within 1 h”. Further, the “PROSCOOP12 expression, SCOOP10 pretreatment then SCOOP10” value in the assay on PROSCOOP12 transcript (pretreated with SCOOP10 24 h, treated with SCOOP10 for 1, 5 and 10 h) is on record as “even stronger”.

The values above are taken from paper PMC11630628 (Molecular Plant, 2024).
